Source: patent publication US20210355194A1 (TWIST BIOSCIENCE, published 2021)
Where two headings read alike, the source gives them in different places.

Assays:
[1] = target: SARS-CoV-2 spike on VSV-pseudotype SARS-CoV-2 (SARS-CoV-2, UniProt P0DTC2 14-1273); test: cell-based or functional assay
[2] = target: T1, SARS-CoV-2 spike on live SARS-CoV-2 virus (SARS-CoV-2, UniProt P0DTC2 14-1273); test: cell-based or functional assay
[3] = target: T1, SARS-CoV-2 spike on live SARS-CoV-2 …; test: cell-based or functional assay; remark: listed apart in the source
[4] = target: T1, SARS-CoV-2 spike on live SARS-CoV-2 …; test: cell-based or functional assay; remark: listed apart in the source
[5] = target: T2, S1 Fc fusion protein (SARS-CoV-2, UniProt P0DTC2 14-685); test: phage ELISA
[6] = target: T3, COVID S1 RBM Fc fusion (Antigen 2) (SARS-CoV-2, UniProt P0DTC2 437-508); test: phage ELISA
[7] = target: T2, S1 Fc fusion protein; test: phage ELISA; remark: listed apart in the source
[8] = target: T3, COVID S1 RBM Fc fusion (Antigen 2); test: phage ELISA; remark: listed apart in the source

B1: variant 6-3 (Fc fusion)
VHH: EVQLVESGGGLVQPGGSLRLSCAASGFTFSPSWMGWFRQAPGKEREFVATINEYGGRNYADSVKGRFTISADNSKNTAYLQMNSLKPEDTAVYYCARVDRDFDYWGQGTLVTVSS
NC50 [1]: 0.06 µg/mL | EC50 [2]: 0.06 µg/mL | PRNT90 [3]: < 0.98 ng/mL | EC80 [4]: 0.115 µg/mL

B2: variant 6-26 (Fc fusion)
VHH: EVQLVESGGGLVQPGGSLRLSCAASGDTFSTSWMGWFRQAPGKEREFVATINTGGGTNYADSVKGRFTISADNSKNTAYLQMNSLKPEDTAVYYCARVTTSFDYWGQGTLVTVSS
NC50 [1]: 2.97 µg/mL | EC50 [2]: 2.97 µg/mL | PRNT90 [3]: 62.5 ng/mL | EC80 [4]: 3.61 µg/mL

B3: variant 6-76 (Fc fusion)
VHH: EVQLVESGGGLVQPGGSLRLSCAASGLAFDFDGMGWFRQAPGKEREGVAAINSGGSTYYADSVKGRFTISADNSKNTAYLQMNSLKPEDTAVYYCARFFRAHDYWGQGTLVTVSS
NC50 [1]: 1.08 µg/mL | EC50 [2]: 1.08 µg/mL | PRNT90 [3]: 3.9 ng/mL | EC80 [4]: 0.426 µg/mL

B4: SARS-CoV-2 variant 1-32 (antibody, V domains shown)
VH: EVQLLESGGGLVQPGGSLRLSCAASGFTFSSYAMYWVRQAPGKGLEWVSAISGSGGSTFYADSVKGRFTISRDNSKNTLYLQMNSLRAEDTAVYYCTRPPYGDYGDYWGQGTLVTVSS
VL: QSALTQPASVSGSPGQSITISCTGTSSDVGGYNLVSWYQQHPGKAPKLMIYEGNKRPSGVSNRFSGSKSGNTASLTISGLQAEDEADYYCCSYAGSSTFPVVFGGGTKLTVL
ELISA fold over background [5]: 4 fold | ELISA fold over background [6]: 1.1 fold | ELISA fold over background [7]: 4 fold | ELISA fold over background [8]: 1.1 fold

B5: SARS-CoV-2 variant 1-49 (antibody, V domains shown)
VH: EVQLLESGGGLVQPGGSLRLSCAASGFTFSSYAMYWVRQAPGKGLEWVSAISGSAGSTYYADSVKGRFTISRDNSKNTLYLQMNSLRAEDTAVYYCARDTNDFWGQGTLVTVSS
VL: QSALTQPASVSGSPGQSITISCTGTSSDIGSYNLVSWYQQHPGKAPKLMIYEGTKRPSGVSNRFSGSKSGNTASLTISGLQAEDEADYYCCSYAGSRTYVFGGGTKLTVL
ELISA fold over background [5]: 0.8 fold | ELISA fold over background [6]: 0.8 fold | ELISA fold over background [7]: 0.8 fold | ELISA fold over background [8]: 0.8 fold

B6: variant 6-85 (Fc fusion)
VHH: EVQLVESGGGLVQPGGSLRLSCAASGGTFSVFAMGWFRQAPGKEREFVSAINWSGGSLLYADSVKGRFTISADNSKNTAYLQMNSLKPEDTAVYYCALFGDFDYWGQGTLVTVSS
NC50 [1]: 0.84 µg/mL | EC50 [2]: 0.84 µg/mL | PRNT90 [3]: 62.5 ng/mL | EC80 [4]: 1.06 µg/mL

B7: variant 6-60 (Fc fusion)
VHH: EVQLVESGGGLVQPGGSLRLSCAASGDTYGSYWMGWFRQAPGKEREFVATISQSGAATAYADSVKGRFTISADNSKNTAYLQMNSLKPEDTAVYYCAGLLRYSGTYYDAFDVWGQGTLVTVSS
NC50 [1]: 0.15 µg/mL | EC50 [2]: 0.15 µg/mL | PRNT90 [3]: < 0.98 ng/mL | EC80 [4]: 0.237 µg/mL

B8: variant 6-55 (Fc fusion)
VHH: EVQLVESGGGLVQPGGSLRLSCAASGFTMSSSWMGWFRQAPGKEREFVARITSGGSTGYADSVKGRFTISADNSKNTAYLQMNSLKPEDTAVYYCASVDGYFDYWGQGTLVTVSS
NC50 [1]: 0.21 µg/mL | EC50 [2]: 0.21 µg/mL | PRNT90 [3]: 62.5 ng/mL | EC80 [4]: 0.445 µg/mL

B9: variant 5-37 (Fc fusion)
VHH: EVQLVESGGGLVQPGGSLRLSCAASGSTFSINAMGWFRQAPGKEREFVGGISRSGATTNYADSVKGRFTISADNSKNTAYLQMNSLKPEDTAVYYCAADGVPEYSDYASGPVWGQGTLVTVSS
EC80 [4]: 12.4 µg/mL

B10: variant 5-20 (Fc fusion)
VHH: EVQLVESGGGLVQPGGSLRLSCAASGRTIVPYTMGWFRQAPGKERELVAAISPSAFTEYADSVKGRFTISADNSKNTAYLQMNSLKPEDTAVYYCAARRWGYDWGQGTLVTVSS
NC50 [1]: 0.27 µg/mL | EC50 [2]: 0.27 µg/mL | PRNT90 [3]: 3.9 ng/mL | EC80 [4]: 0.376 µg/mL

B11: variant 6-63 (Fc fusion)
VHH: EVQLVESGGGLVQPGGSLRLSCAASGQTFNMGWFRQAPGKEREFVAAIGSGGSTSYADSVKGRFTISADNSKNTAYLQMNSLKPEDTAVYYCWRLGNDYFDYWGQGTLVTVSS
notes: also called VHH nanobody 6-63
NC50 [1]: 0.06 µg/mL | EC50 [2]: 0.06 µg/mL | PRNT90 [3]: 3.9 ng/mL | EC80 [4]: 0.0579 µg/mL

B12: variant 6-20 (Fc fusion)
VHH: EVQLVESGGGLVQPGGSLRLSCAASGSTLPYHAMGWFRQAPGKEREFVAAITWNGASTSYADSVKGRFTISADNSKNTAYLQMNSLKPEDTAVYYCARDRYYDTSASYFESETWGQGTLVTVSS
NC50 [1]: 5.03 µg/mL | EC50 [2]: 5.03 µg/mL | PRNT90 [3]: 15.6 ng/mL | EC80 [4]: 2.31 µg/mL

B13: variant 6-73 (Fc fusion)
VHH: EVQLVESGGGLVQPGGSLRLSCAASGHTFSGYAMGWFRQAPGKEREFVAVITREGSTYYADSVKGRFTISADNSKNTAYLQMNSLKPEDTAVYYCARLGGEGFDYWGQGTLVTVSS
NC50 [1]: 1.46 µg/mL | EC50 [2]: 1.46 µg/mL | PRNT90 [3]: 250 ng/mL | EC80 [4]: 2.02 µg/mL

B14: SARS-CoV-2 variant 1-4 (antibody, V domains shown)
VH: EVQLLESGGGLVQPGGSLRLSCAASGFTFSSQAMSWVRQAPGKGLEWVSAISGSGGGTYYADSVKGRFTISRDNSKNTLYLQMNSLRAEDTAVYYCAKDRRFGEFDPWGQGTLVTVSS
VL: QSALTQPASVSGSPGQSITISCTGTSSDVGTYNLVSWYQQHPGKAPKLMIYEGSQRPSGVSNRFSGSKSGNTASLTISGLQAEDEADYYCCSYAGSSSFVVFGGGTKLTVL
ELISA fold over background [5]: 0.9 fold | ELISA fold over background [6]: 1.1 fold | ELISA fold over background [7]: 0.9 fold | ELISA fold over background [8]: 1.1 fold

B15: SARS-CoV-2 variant 1-28 (antibody, V domains shown)
VH: EVQLLESGGGLVQPGGSLRLSCAASGFTFSSYGMSWVRQAPGKGLEWVSAISGSGGGTYYADSVKGRFTISRDNSKNTLYLQMNSLRAEDTAVYYCASSSSWQFDYWGQGTLVTVSS
VL: QSALTQPASVSGSPGQSITISCTGTSSGVGSYNLVSWYQQHPGKAPKLMIYEGSQRPSGVSNRFSGSKSGNTASLTISGLQAEDEADYYCCSYAGSSTHYVFGGGTKLTVL
ELISA fold over background [5]: 1.1 fold | ELISA fold over background [6]: 1.2 fold | ELISA fold over background [7]: 1.1 fold | ELISA fold over background [8]: 1.2 fold

B16: SARS-CoV-2 variant 1-30 (antibody, V domains shown)
VH: EVQLLESGGGLVQPGGSLRLSCAASGFTFSSYAMTWVRQAPGKGLEWVSAISGSGGSTFYADSVKGRFTISRDNSKNTLYLQMNSLRAEDTAVYYCTRPPYGDYGDYWGQGTLVTVSS
VL: QSALTQPASVSGSPGQSITISCTGTSRDVGSYNLVSWYQQHPGKAPKLMIYEGTKRPSGVSNRFSGSKSGNTASLTISGLQAEDEADYYCCSYAGSRTPVVFGGGTKLTVL
ELISA fold over background [5]: 5.6 fold | ELISA fold over background [6]: 1.4 fold | ELISA fold over background [7]: 5.6 fold | ELISA fold over background [8]: 1.4 fold

B17: SARS-CoV-2 variant 1-5 (antibody, V domains shown)
VH: EVQLLESGGGLVQPGGSLRLSCAASGFTFSSQAMSWVRQAPGKGLEWVSAISGSGGGTYYADSVKGRFTISRDNSKNTLYLQMNSLRAEDTAVYYCAKDRRFGEFDPWGQGTLVTVSS
VL: QSALTQPASVSGSPGQSITISCTGTSSGVGSYNLVSWYQQHPGKAPKLMIYEASKRPSGVSNRFSGSKSGNTASLTISGLQAEDEADYYCCSYAGSYTFAVFGGGTKLTVL
ELISA fold over background [5]: 1.2 fold | ELISA fold over background [6]: 1.4 fold | ELISA fold over background [7]: 1.2 fold | ELISA fold over background [8]: 1.4 fold

B18: SARS-CoV-2 variant 1-31 (antibody, V domains shown)
VH: EVQLLESGGGLVQPGGSLRLSCAASGFTFSSYAMNWVRQAPGKGLEWVSAISGSGGSTFYADSVKGRFTISRDNSKNTLYLQMNSLRAEDTAVYYCTRPPYGDYGDYWGQGTLVTVSS
VL: QSALTQPASVSGSPGQSITISCTGTSSDVGKYNLVSWYQQHPGKAPKLMIYEGSQRPSGVSNRFSGSKSGNTASLTISGLQAEDEADYYCCSYAGSRTPVVFGGGTKLTVL
ELISA fold over background [5]: 15.7 fold | ELISA fold over background [6]: 1.2 fold | ELISA fold over background [7]: 15.7 fold | ELISA fold over background [8]: 1.2 fold

B19: SARS-CoV-2 variant 1-3 (antibody, V domains shown)
VH: EVQLLESGGGLVQPGGSLRLSCAASGFTFSSQAMSWVRQAPGKGLEWVSAISGSGGGTYYADSVKGRFTISRDNSKNTLYLQMNSLRAEDTAVYYCAKDRRFGEFDPWGQGTLVTVSS
VL: QSALTQPASVSGSPGQSITISCTGISSDVGSYNLVSWYQQHPGKAPKLMIYEGTKRPSGVSNRFSGSKSGNTASLTISGLQAEDEADYYCCSYAGSSSFVVFGGGTKLTVL
ELISA fold over background [5]: 1.5 fold | ELISA fold over background [6]: 1.5 fold | ELISA fold over background [7]: 1.5 fold | ELISA fold over background [8]: 1.5 fold

B20: variant 6-78 (Fc fusion)
VHH: EVQLVESGGGLVQPGGSLRLSCAASGRTYDAMGWFRQAPGKEREFVASVTSGGYTHYADSVKGRFTISADNSKNTAYLQMNSLKPEDTAVYYCAKFGRKIVGATELDYWGQGTLVTVSS
NC50 [1]: 8.26 µg/mL | EC50 [2]: 8.26 µg/mL | PRNT90 [3]: 250 ng/mL | EC80 [4]: 13.8 µg/mL

B21: variant 5-1 (Fc fusion)
VHH: EVQLVESGGGLVQPGGSLRLSCAASGGTFSSIGMGWFRQAPGKEREFVAAISWDGGATAYADSVKGRFTISADNSKNTAYLQMNSLKPEDTAVYYCAKEDVGKPFDWGQGTLVTVSS
NC50 [1]: 0.1 µg/mL | EC50 [2]: 0.1 µg/mL | PRNT90 [3]: 15.6 ng/mL | EC80 [4]: 0.811 µg/mL
